The target in assay [1] is C1GALT1 (Core 1 β1,3-galactosyltransferase) (Homo sapiens, UniProt Q9NS00). Nature of the assay: cellular thermal shift assay (CETSA, western blot) in SAS and OEC-M1 cells; destabilization, dose-dependent. In kind it is cell-based. For orientation: A western blot detects proteins with antibodies after separation by electrophoresis.
The target in assay [2] is EGFR (endogenous, from control HNSCC cells) (human (endogenous in SAS and OEC-M1)) (UniProt P00533). Nature of the assay: ELISA; ligand-binding assay: 100 µg lysate of SAS cells (siCtr or siC1GALT1-2, 72 h) incubated 18 h on plates coated with anti-EGFR antibody; biotin-EGF at different concentrations, 37 °C, 3 h; streptavidin-HRP, O.D. 490 nm; Kd estimated from Scatchard plot.

The target in assay [3] is EGFR from C1GALT1 knockdown HNSCC cells (human (endogenous in SAS and OEC-M1)) (UniProt P00533). The description is as above.
For assay [4], the target named is EGFR (endogenous, from control HNSCC cells) (human (endogenous in SAS and OEC-M1)) (UniProt P00533). Nature of the assay: ELISA; ligand-binding assay: 100 µg lysate of OEC-M1 cells (siCtr or siC1GALT1-2, 72 h) incubated 18 h on plates coated with anti-EGFR antibody; biotin-EGF at different concentrations, 37 °C, 3 h; streptavidin-HRP, O.D. 490 nm; Kd estimated from Scatchard plot.

The target of assay [5] is EGFR from C1GALT1 knockdown HNSCC cells (human (endogenous in SAS and OEC-M1)) (UniProt P00533). Described as above.

Sequence of C1GALT1 (Core 1 β1,3-galactosyltransferase) (Q9NS00 whole entry): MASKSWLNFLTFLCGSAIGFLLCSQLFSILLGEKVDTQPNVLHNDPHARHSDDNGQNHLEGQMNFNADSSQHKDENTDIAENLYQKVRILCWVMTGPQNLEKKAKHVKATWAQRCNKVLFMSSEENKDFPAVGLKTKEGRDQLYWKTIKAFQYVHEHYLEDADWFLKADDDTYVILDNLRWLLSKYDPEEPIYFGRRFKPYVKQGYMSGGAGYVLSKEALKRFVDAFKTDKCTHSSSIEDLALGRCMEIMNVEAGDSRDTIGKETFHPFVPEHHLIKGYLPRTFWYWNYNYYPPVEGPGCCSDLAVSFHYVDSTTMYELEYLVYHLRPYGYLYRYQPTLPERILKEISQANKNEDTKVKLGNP

Take `CCC(C)n1ncn(-c2ccc(N3CCN(c4ccc(OCC5COC(Cn6cncn6)(c6ccc(Cl)cc6Cl)O5)cc4)CC3)cc2)c1=O` (centres unmarked) [ITZ, itraconazole]: in assay [1], the “cellular thermal shift assay (CETSA, western blot) in SAS and OEC-M1 cells; dest” value is “melting temperature of C1GALT1 was decreased when SAS and OEC-M1 cells were treated with itraconazole”.
As to Biotin-EGF (ligand), the Kd (usually the constant that tells how readily two partners part at equilibrium) is 32 nM in assay [2], 42.3 nM in assay [3], 26.1 nM in assay [4] and 58.8 nM in assay [5].

The record behind these values is paper PMC6202324, “C1GALT1 predicts poor prognosis and is a potential therapeutic target in head and neck cancer” (Oncogene, 2018).
